Results on 5 molecules are retold here after paper PMC9243173, “Iron-regulated assembly of the cytosolic iron–sulfur cluster biogenesis machinery” (The Journal of Biological Chemistry, 2022).

What all share (assay): affinity purification with mass spectrometry; anti-HA beads on lysates of Flp-In 293 cells expressing the 3HA-3FLAG-tagged bait (NUBP2, wildtype or mutant CIAO3); targeted proteomics assay (parallel reaction monitoring) of CIA components and substrates; CIAO3 purifications normalised to CIAO3; wildtype CIAO3 cells also treated with FAC or DFO for 8 h
Conditions in all cases: partners not purified

In one experiment the target is T1, 3HA-3FLAG-CIAO3-C71S (human, UniProt Q9H6Q4 1-476, C71S).
T1 construct: human CIAO3 (NARFL), as m13, with C71S (N-terminal Fe-S cluster site); also called C71S mutant; source: Flp-In T-REx 293, stably expressed, induced with doxycycline, in lysate; not shown: 3xHA, N-terminal, kept; 3xFLAG, N-terminal, kept
T1 sequence (Q9H6Q4 whole entry C71S): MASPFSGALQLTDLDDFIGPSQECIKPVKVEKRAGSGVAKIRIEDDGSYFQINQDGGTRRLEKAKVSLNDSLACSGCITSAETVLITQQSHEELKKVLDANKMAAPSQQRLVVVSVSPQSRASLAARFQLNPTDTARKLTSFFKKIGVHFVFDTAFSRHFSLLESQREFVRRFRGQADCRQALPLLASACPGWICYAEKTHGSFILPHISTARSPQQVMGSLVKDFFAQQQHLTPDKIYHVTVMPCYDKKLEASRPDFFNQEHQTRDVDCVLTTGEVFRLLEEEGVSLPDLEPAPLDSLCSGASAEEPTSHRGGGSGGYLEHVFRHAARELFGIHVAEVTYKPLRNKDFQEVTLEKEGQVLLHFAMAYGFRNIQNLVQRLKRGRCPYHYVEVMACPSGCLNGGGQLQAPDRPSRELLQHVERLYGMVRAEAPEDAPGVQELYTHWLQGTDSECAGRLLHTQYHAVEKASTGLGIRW

The target in experiment [1] is T2, 3HA-3FLAG-CIAO3-C71S/C190S/C395S (human, UniProt Q9H6Q4 1-476, C71S | C190S | C395S).
T2 construct: human CIAO3 (NARFL), as m13, with C71S, C190S and C395S; also called C71S/C190S/C395S mutant; source: Flp-In T-REx 293, stably expressed, induced with doxycycline, in lysate; not shown: 3xHA, N-terminal, kept; 3xFLAG, N-terminal, kept
T2 sequence (Q9H6Q4 whole entry C71S/C190S/C395S): as the sequence (Q9H6Q4 whole entry C71S) above, with C190S, C395S counted along it

Experiment [2] deals with T3, 3HA-3FLAG-CIAO3, wildtype (human, UniProt Q9H6Q4 1-476).
T3 construct: human CIAO3 (NARFL) cDNA, amplified with primers from the start codon to the stop codon, in pcDNA5/FRT with an N-terminal tandem 3xHA-3xFLAG tag; also called 3HA-3FLAG-tagged CIAO3; wildtype CIAO3; source: Flp-In T-REx 293, stably expressed, induced with doxycycline, in lysate; not shown: 3xHA, N-terminal, kept; 3xFLAG, N-terminal, kept
T3 sequence (Q9H6Q4 whole entry): as the sequence (Q9H6Q4 whole entry C71S) above, with S71C counted along it

Experiment [3] has as its target T4, 3HA-3FLAG-CIAO3-C190S/C395S (human, UniProt Q9H6Q4 1-476, C190S | C395S).
T4 construct: human CIAO3 (NARFL), as m13, with C190S and C395S (C-terminal Fe-S cluster site); also called C190S/C395S mutant; source: Flp-In T-REx 293, stably expressed, induced with doxycycline, in lysate; not shown: 3xHA, N-terminal, kept; 3xFLAG, N-terminal, kept

T4 sequence (Q9H6Q4 whole entry C190S/C395S): as the sequence (Q9H6Q4 whole entry C71S) above, with S71C, C190S, C395S counted along it

B1: MMS19 nucleotide excision repair protein homolog (MMS19) (natural protein, human (endogenous in Flp-In T-REx 293), UniProt Q96T76 1-1030, looked up)
chain: MAAAAAVEAAAPMGALWGLVHDFVVGQQEGPADQVAADVKSGNYTVLQVVEALGSSLENPEPRTRARAIQLLSQVLLHCHTLLLEKEVVHLILFYENRLKDHHLVIPSVLQGLKALSLCVALPPGLAVSVLKAIFQEVHVQSLPQVDRHTVYNIITNFMRTREEELKSLGADFTFGFIQVMDGEKDPRNLLVAFRIVHDLISRDYSLGPFVEELFEVTSCYFPIDFTPPPNDPHGIQREDLILSLRAVLASTPRFAEFLLPLLIEKVDSEVLSAKLDSLQTLNACCAVYGQKELKDFLPSLWASIRREVFQTASERVEAEGLAALHSLTACLSRSVLRADAEDLLDSFLSNILQDCRHHLCEPDMKLVWPSAKLLQAAAGASARACDSVTSNVLPLLLEQFHKHSQSSQRRTILEMLLGFLKLQQKWSYEDKDQRPLNGFKDQLCSLVFMALTDPSTQLQLVGIRTLTVLGAQPDLLSYEDLELAVGHLYRLSFLKEDSQSCRVAALEASGTLAALYPVAFSSHLVPKLAEELRVGESNLTNGDEPTQCSRHLCCLQALSAVSTHPSIVKETLPLLLQHLWQVNRGNMVAQSSDVIAVCQSLRQMAEKCQQDPESCWYFHQTAIPCLLALAVQASMPEKEPSVLRKVLLEDEVLAAMVSVIGTATTHLSPELAAQSVTHIVPLFLDGNVSFLPENSFPSRFQPFQDGSSGQRRLIALLMAFVCSLPRNVEIPQLNQLMRELLELSCCHSCPFSSTAAAKCFAGLLNKHPAGQQLDEFLQLAVDKVEAGLGSGPCRSQAFTLLLWVTKALVLRYHPLSSCLTARLMGLLSDPELGPAAADGFSLLMSDCTDVLTRAGHAEVRIMFRQRFFTDNVPALVQGFHAAPQDVKPNYLKGLSHVLNRLPKPVLLPELPTLLSLLLEALSCPDCVVQLSTLSCLQPLLLEAPQVMSLHVDTLVTKFLNLSSSPSMAVRIAALQCMHALTRLPTPVLLPYKPQVIRALAKPLDDKKRLVRKEAVSARGEWFLLGSPGS
notes: MMS19 nucleotide excision repair protein homolog, component of the CIA targeting complex, endogenous; source: endogenous, Flp-In T-REx 293 lysate
Take B1: in the experiment with 3HA-3FLAG-CIAO3-C71S, the “fold decrease against wildtype CIAO3” value is around 5 fold. In addition, the “fold change against wildtype CIAO3” value in experiment [1] was 2 fold.

B2: probable cytosolic iron-sulfur protein assembly protein CIAO1 (natural protein)
chain: not shown
notes: CIAO1, component of the CIA targeting complex, endogenous; source: endogenous, Flp-In T-REx 293 lysate
For the molecule B2, the “fold decrease against wildtype CIAO3” value with 3HA-3FLAG-CIAO3-C71S was around 5 fold. Besides, the “fold change against wildtype CIAO3” value in experiment [1] turned out to be 2 fold.

B3: nucleotide-binding protein 2 (NUBP2), endogenous (natural protein, human (endogenous in Flp-In T-REx 293), UniProt Q9Y5Y2 1-271, looked up)
chain: MEAAAEPGNLAGVRHIILVLSGKGGVGKSTISTELALALRHAGKKVGILDVDLCGPSIPRMLGAQGRAVHQCDRGWAPVFLDREQSISLMSVGFLLEKPDEAVVWRGPKKNALIKQFVSDVAWGELDYLVVDTPPGTSDEHMATIEALRPYQPLGALVVTTPQAVSVGDVRRELTFCRKTGLRVMGIVENMSGFTCPHCTECTSVFSRGGGEELAQLAGVPFLGSVPLDPALMRTLEEGHDFIQEFPGSPAFAALTSIAQKILDATPACLP
notes: also called CFD1; source: endogenous, Flp-In T-REx 293 lysate
Consider B3, for which, in experiment [2], the “fold reduction in iron-deficient (DFO) against iron-replete (FAC) conditions” value was around 4 fold. In addition, the “fold reduction against wildtype CIAO3” value (with 3HA-3FLAG-CIAO3-C71S; in experiment [3]; in experiment [1]) was above 32 fold throughout.

B4: nucleotide-binding protein 1 (NUBP1) (natural protein, human (endogenous in Flp-In T-REx 293), UniProt P53384 1-320, looked up)
chain: MEEVPHDCPGADSAQAGRGASCQGCPNQRLCASGAGATPDTAIEEIKEKMKTVKHKILVLSGKGGVGKSTFSAHLAHGLAEDENTQIALLDIDICGPSIPKIMGLEGEQVHQSGSGWSPVYVEDNLGVMSVGFLLSSPDDAVIWRGPKKNGMIKQFLRDVDWGEVDYLIVDTPPGTSDEHLSVVRYLATAHIDGAVIITTPQEVSLQDVRKEINFCRKVKLPIIGVVENMSGFICPKCKKESQIFPPTTGGAELMCQDLEVPLLGRVPLDPLIGKNCDKGQSFFIDAPDSPATLAYRSIIQRIQEFCNLHQSKEENLISS
notes: also called NBP35; source: endogenous, Flp-In T-REx 293 lysate
Consider B4, for which the “fold reduction in iron-deficient (DFO) against iron-replete (FAC) conditions” value in experiment [2] was around 4 fold. Also, the “fold reduction against wildtype CIAO3” value (with 3HA-3FLAG-CIAO3-C71S; in experiment [3]; in experiment [1]) was above 32 fold each time.

B5: cytosolic iron-sulfur assembly component 2B (CIAO2B) (natural protein, human (endogenous in Flp-In T-REx 293), UniProt Q9Y3D0 1-163, looked up)
chain: MVGGGGVGGGLLENANPLIYQRSGERPVTAGEEDEQVPDSIDAREIFDLIRSINDPEHPLTLEELNVVEQVRVQVSDPESTVAVAFTPTIPHCSMATLIGLSIKVKLLRSLPQRFKMDVHITPGTHASEHAVNKQLADKERVAAALENTHLLEVVNQCLSARS
notes: CIAO2B (cytosolic iron-sulfur assembly component 2B), component of the CIA targeting complex, endogenous; source: endogenous, Flp-In T-REx 293 lysate
On to B5, for which the “fold decrease against wildtype CIAO3” value with 3HA-3FLAG-CIAO3-C71S is around 5 fold. Besides, in experiment [1], the “fold change against wildtype CIAO3” value stood at 2 fold.
